Earlier results, collected in paper PMC4059559.

What was measured:
His152 = His152 (UniProt position 152, WFCPCHGSHYD); test: other
His131 = His131 (UniProt position 131, WGVCTHLGCVP); test: other
[1] = oxidised ISP (ISPox), isolated protein

In the case of “Rieske iron-sulfur protein (ISP) of the cytochrome bc1 complex, isolated (Rhodobacter sphaeroides)”, the pKa (His152; [1]) is given as about 7.6, the pKa (His152; reduced ISP (ISPH)) is given as ~12–13 and the pKa (His131; [1]) is given as about 9.6. For the same substance, the pKa (His131; reduced ISP (ISPH)) was ~12–13.
